Assay results as given in patent US20030166036A1, “Protease and an aminopeptidase associated with development of benign prostatic hyperplasia (BPH)” (priority 2001, published 2003).

Legend:
PSA = target: T1, PSA (Homo sapiens, UniProt P07288); experiment: Incubation of PSA with lysyl endopeptidase C, cleavage followed by HIC-HPLC and N-terminal sequencing; format: biochemical
T1 construct: Unlike the purified mature PSA, pPSA was isolated from a recombinant expression system; from tissue; host or cells: seminal plasma
T1 sequence (P07288 25-261): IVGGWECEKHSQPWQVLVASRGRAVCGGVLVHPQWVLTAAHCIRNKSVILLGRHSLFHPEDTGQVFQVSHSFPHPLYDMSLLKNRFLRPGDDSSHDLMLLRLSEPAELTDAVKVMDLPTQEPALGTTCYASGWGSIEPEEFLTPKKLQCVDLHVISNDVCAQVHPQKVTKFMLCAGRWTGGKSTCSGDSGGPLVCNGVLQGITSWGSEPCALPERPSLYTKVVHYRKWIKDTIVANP
Procedure: (§1) High-performance hydrophobic interaction chromatography (HIC-HPLC) was performed using a polypropylaspartamide column (PolyLC, distributed by Western Analytical, Temecula, Calif.). The column was 4.6×250 mm in length with a 1000 Å pore size. Samples were applied in 1.5 M ammonium sulfate and eluted with a gradient. Buffers were prepared as follows. Buffer A consisted of 1.2 M sodium sulfate, 25 mM sodium phosphate, and a pH of 6.3, and Buffer B consisted of 50 mM sodium phosphate and 5% v/v 2-propanol. The gradient was 0-30% B for 1 minute, 30-60% B 10 minutes, followed by re-equilibration in Buffer A. High-sensitivity peak detection was obtained with a Varian Model 9070 (Varian Medical Systems, Palo Alto, Calif.) scanning fluorescence detector using an excitation of 232 nm and an emission of 334 nm to detect the tryptophan residues in protein.
N-terminal sequence analysis of the samples was performed on a PE-Applied Biosystems Model 492 amino acid sequencer (PE-Applied Biosystems, Foster City, Calif.). Purified PSA and peaks collected by HIC-HPLC were applied directly to Prosorb cartridges (PE-Applied Biosystems, Foster City, Calif.), washed three times with 0.1 ml 0.01% trifluoroacetic acid, and applied to the sequencer.
Samples of PSA and proPSA were incubated with 0.1% lysyl endopeptidase C (Wako Cemicals USA, Richmond, Va.) in PBS at pH 7 for the times indicated in the figures. The LysC reaction was quenched by the addition of a 10-fold molar excess of aprotinin prior to analysis by HIC-HPLC. The internal cleavage sites of the different HIC-HPLC peaks were determined by N-terminal sequencing.
We also examined the digestion of PSA with LysC in vitro to determine the relative susceptibility of the Lys145 and Lys182 sites.

proPSA = target: T2, proPSA (Homo sapiens, UniProt P07288); experiment: Incubation of proPSA with lysyl endopeptidase C, cleavage followed by HIC-HPLC; format: biochemical; settings: recombinant pPSA (zymogen), 0.1% LysC in PBS pH 7
T2 construct: due to the altered folding in the zymogen form of PSA; made in house
T2 sequence (P07288 18-261 limits assumed): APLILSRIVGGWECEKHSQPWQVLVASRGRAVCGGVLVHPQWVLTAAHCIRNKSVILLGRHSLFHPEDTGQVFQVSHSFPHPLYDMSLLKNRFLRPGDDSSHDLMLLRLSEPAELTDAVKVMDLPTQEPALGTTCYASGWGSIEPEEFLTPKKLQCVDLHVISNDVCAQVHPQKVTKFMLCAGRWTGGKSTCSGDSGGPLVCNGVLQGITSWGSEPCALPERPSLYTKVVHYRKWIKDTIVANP
Procedure: as §1
Samples of PSA and proPSA were incubated with 0.1% lysyl endopeptidase C (Wako Cemicals USA, Richmond, Va.) in PBS at pH 7 for the times indicated in the figures. […] The internal cleavage sites of the different HIC-HPLC peaks were determined by N-terminal sequencing.
ProPSA (pPSA) was also incubated with LysC to determine if there was any difference between the cleavage of the Lys145 and Lys182 sites due to the altered folding in the zymogen form of PSA. […] The cleavage of the Lys182 and Lys145 sites in pPSA was also monitored by HIC-HPLC. […]

Lys182 cleaved more rapidly than Lys145 (PSA; PSA digested with LysC in vitro): approximately 30 times
PSA cleaved at Lys182 (PSA; after 30 minutes of incubation with LysC): 100%
rate of cleavage at Lys145 (PSA; mature PSA, 0.1% LysC in PBS pH 7, based on time points greater than 30 minutes): 0.3 % per minute
rate of cleavage at Lys145 (proPSA): about 0.6 % per minute
B1: LysC: lysyl endopeptidase C (Wako), commercial protease with wide specificity for lysine residues, used to cleave PSA in vitro (protein)
chain: GVSGSCNIDVVCPEGDGRRDIIRAVGAYSKSGTLACTGSLVNNTANDRKMYFLTAHHCGMGTASTAASIVVYWNYQNSTCRAPNTPASGANGDGSMSQTQSGSTVKATYATSDFTLLELNNAANPAFNLFWAGWDRRDQNYPGAIAIHHPNVAEKRISNSTSPTSFVAWGGGAGTTHLNVQWQPSGGVTEPGSSGSPIYSPEKRVLGQLHGGPSSCSATGTNRSDQYGRVFTSWTGGGAAASRLSDWLDPASTGAQFIDGLDSGGGTP
initial rate of cleavage at Lys182 (PSA; mature PSA purified from seminal plasma, 0.1% LysC in PBS pH 7): 12 % per minute
initial rate of cleavage of the Lys182 (proPSA): 8 % per minute
